Measurements taken from patent US20240018502A1.

B1: MTSP-1 protease domain Q38H/I41A/D60bV/F60eR/Y60gW/D96I/F97N/T98G/F99L/C122S/G151H/Q175L/Q192D (enzyme)
chain: VVGGTDADEGEWPWQVSLHALGHGHACGASLISPNWLVSAAHCYIDVRGRRWSDPTQWTAFLGLHDQSQRSAPGVQERRLKRIISHPFFNINGLDYDIALLELEKPAEYSSMVRPISLPDASHVFPAGKAIWVTGWGHTQYGGTHALILQKGEIRVINQTTCENLLPQLITPRMMCVGFLSGGVDSCDGDSGGPLSSVEADGRIFQAGVVSWGDGCAQRNKPGVYTRLPLFRDWIKENTGV
B2: MTSP-1 Q38H/I41S/D60bT/F60eS/Y60gW/D96Y/ins97aV/F97E/T98G/F99L/C122S/G151H/Q175L/Q192D (enzyme)
chain: VVGGTDADEGEWPWQVSLHALGHGHSCGASLISPNWLVSAAHCYIDTRGSRWSDPTQWTAFLGLHDQSQRSAPGVQERRLKRIISHPFFNYEVGLDYDIALLELEKPAEYSSMVRPISLPDASHVFPAGKAIWVTGWGHTQYGGTHALILQKGEIRVINQTTCENLLPQLITPRMMCVGFLSGGVDSCDGDSGGPLSSVEADGRIFQAGVVSWGDGCAQRNKPGVYTRLPLFRDWIKENTGV
B3: MTSP-1 Q38H/I41S/D60bS/F60eQ/Y60gF/ins97aV/F97D/T98P/F99L/C122S/H143R/G151N/Q175L/Q192T (enzyme)
chain: VVGGTDADEGEWPWQVSLHALGHGHSCGASLISPNWLVSAAHCYIDSRGQRFSDPTQWTAFLGLHDQSQRSAPGVQERRLKRIISHPFFNDDVPLDYDIALLELEKPAEYSSMVRPISLPDASHVFPAGKAIWVTGWGRTQYGGTNALILQKGEIRVINQTTCENLLPQLITPRMMCVGFLSGGVDSCTGDSGGPLSSVEADGRIFQAGVVSWGDGCAQRNKPGVYTRLPLFRDWIKENTGV
B4: MTSP-1 Q38H/I41S/D60bA/Y60gG/ins97aV/F97D/T98P/F99L/C122S/H143T/G151N/Q175L/Q192A (enzyme)
chain: VVGGTDADEGEWPWQVSLHALGHGHSCGASLISPNWLVSAAHCYIDARGFRGSDPTQWTAFLGLHDQSQRSAPGVQERRLKRIISHPFFNDDVPLDYDIALLELEKPAEYSSMVRPISLPDASHVFPAGKAIWVTGWGTTQYGGTNALILQKGEIRVINQTTCENLLPQLITPRMMCVGFLSGGVDSCAGDSGGPLSSVEADGRIFQAGVVSWGDGCAQRNKPGVYTRLPLFRDWIKENTGV
B5: MTSP-1 protease domain Q38H/I41S/D60bS/F60eQ/ins97aV/F97D/T98P/F99L/C122S/H143A/G151N/Q175L/Q192G (enzyme)
chain: VVGGTDADEGEWPWQVSLHALGHGHSCGASLISPNWLVSAAHCYIDSRGQRYSDPTQWTAFLGLHDQSQRSAPGVQERRLKRIISHPFFNDDVPLDYDIALLELEKPAEYSSMVRPISLPDASHVFPAGKAIWVTGWGATQYGGTNALILQKGEIRVINQTTCENLLPQLITPRMMCVGFLSGGVDSCGGDSGGPLSSVEADGRIFQAGVVSWGDGCAQRNKPGVYTRLPLFRDWIKENTGV
B6: MTSP-1 protease domain Q38H/I41S/D60bT/F60eT/ins97aV/F97D/T98P/F99L/C122S/H143Q/G151Q/Q175L/Q192G (enzyme)
chain: VVGGTDADEGEWPWQVSLHALGHGHSCGASLISPNWLVSAAHCYIDTRGTRYSDPTQWTAFLGLHDQSQRSAPGVQERRLKRIISHPFFNDDVPLDYDIALLELEKPAEYSSMVRPISLPDASHVFPAGKAIWVTGWGQTQYGGTQALILQKGEIRVINQTTCENLLPQLITPRMMCVGFLSGGVDSCGGDSGGPLSSVEADGRIFQAGVVSWGDGCAQRNKPGVYTRLPLFRDWIKENTGV
B7: MTSP-1 protease domain Q38H/I41S/D60bT/F60eS/Y60gW/D96L/ins97aG/F97D/T98N/F99L/C122S/G151H/Q175L/Q192E (enzyme)
chain: VVGGTDADEGEWPWQVSLHALGHGHSCGASLISPNWLVSAAHCYIDTRGSRWSDPTQWTAFLGLHDQSQRSAPGVQERRLKRIISHPFFNLDGNLDYDIALLELEKPAEYSSMVRPISLPDASHVFPAGKAIWVTGWGHTQYGGTHALILQKGEIRVINQTTCENLLPQLITPRMMCVGFLSGGVDSCEGDSGGPLSSVEADGRIFQAGVVSWGDGCAQRNKPGVYTRLPLFRDWIKENTGV
B8: MTSP-1 Q38H/I41S/D60bT/F60eH/Y60gF/ins97aV/F97D/T98P/F99L/C122S/H143R/G151N/Q175L/Q192S (enzyme)
chain: VVGGTDADEGEWPWQVSLHALGHGHSCGASLISPNWLVSAAHCYIDTRGHRFSDPTQWTAFLGLHDQSQRSAPGVQERRLKRIISHPFFNDDVPLDYDIALLELEKPAEYSSMVRPISLPDASHVFPAGKAIWVTGWGRTQYGGTNALILQKGEIRVINQTTCENLLPQLITPRMMCVGFLSGGVDSCSGDSGGPLSSVEADGRIFQAGVVSWGDGCAQRNKPGVYTRLPLFRDWIKENTGV
B9: MTSP-1 protease domain Q38H/I41S/D60bT/F60eS/Y60gW/D96K/ins97aV/F97G/T98P/F99L/C122S/G151H/Q175L/Q192D (enzyme)
chain: VVGGTDADEGEWPWQVSLHALGHGHSCGASLISPNWLVSAAHCYIDTRGSRWSDPTQWTAFLGLHDQSQRSAPGVQERRLKRIISHPFFNKGVPLDYDIALLELEKPAEYSSMVRPISLPDASHVFPAGKAIWVTGWGHTQYGGTHALILQKGEIRVINQTTCENLLPQLITPRMMCVGFLSGGVDSCDGDSGGPLSSVEADGRIFQAGVVSWGDGCAQRNKPGVYTRLPLFRDWIKENTGV
B10: MTSP-1 protease domain Q38H/I41S/D60bQ/F60eQ/F97D/ins97aV/T98P/F99L/C122S/H143Q/G151Q/Q175L/Q192G (enzyme)
chain: VVGGTDADEGEWPWQVSLHALGHGHSCGASLISPNWLVSAAHCYIDQRGQRYSDPTQWTAFLGLHDQSQRSAPGVQERRLKRIISHPFFNDDVPLDYDIALLELEKPAEYSSMVRPISLPDASHVFPAGKAIWVTGWGQTQYGGTQALILQKGEIRVINQTTCENLLPQLITPRMMCVGFLSGGVDSCGGDSGGPLSSVEADGRIFQAGVVSWGDGCAQRNKPGVYTRLPLFRDWIKENTGV
B11: MTSP-1 protease domain Q38H/I41A/D60bV/F60eR/Y60gW/D96Q/F97E/ins97aD/T98S/F99L/C122S/G151N/Q175L/Q192R (enzyme)
chain: VVGGTDADEGEWPWQVSLHALGHGHACGASLISPNWLVSAAHCYIDVRGRRWSDPTQWTAFLGLHDQSQRSAPGVQERRLKRIISHPFFNQEDSLDYDIALLELEKPAEYSSMVRPISLPDASHVFPAGKAIWVTGWGHTQYGGTNALILQKGEIRVINQTTCENLLPQLITPRMMCVGFLSGGVDSCRGDSGGPLSSVEADGRIFQAGVVSWGDGCAQRNKPGVYTRLPLFRDWIKENTGV
B12: MTSP-1 Q38H/I41S/D60bF/F60eQ/Y60gF/ins97aV/F97D/T98P/F99L/C122S/H143A/G151N/Q175L/Q192A (enzyme)
chain: VVGGTDADEGEWPWQVSLHALGHGHSCGASLISPNWLVSAAHCYIDFRGQRFSDPTQWTAFLGLHDQSQRSAPGVQERRLKRIISHPFFNDDVPLDYDIALLELEKPAEYSSMVRPISLPDASHVFPAGKAIWVTGWGATQYGGTNALILQKGEIRVINQTTCENLLPQLITPRMMCVGFLSGGVDSCAGDSGGPLSSVEADGRIFQAGVVSWGDGCAQRNKPGVYTRLPLFRDWIKENTGV
B13: MTSP-1 protease domain Q38H/I41S/D60bT/F60eS/Y60gW/D96F/F97D/ins97aE/T98S/F99L/C122S/G151H/Q175L/Q192A (enzyme)
chain: VVGGTDADEGEWPWQVSLHALGHGHSCGASLISPNWLVSAAHCYIDTRGSRWSDPTQWTAFLGLHDQSQRSAPGVQERRLKRIISHPFFNFDESLDYDIALLELEKPAEYSSMVRPISLPDASHVFPAGKAIWVTGWGHTQYGGTHALILQKGEIRVINQTTCENLLPQLITPRMMCVGFLSGGVDSCAGDSGGPLSSVEADGRIFQAGVVSWGDGCAQRNKPGVYTRLPLFRDWIKENTGV
B14: MTSP-1 protease domain Q38H/I41A/D60bV/F60eR/Y60gW/D96I/ins97aN/F97Y/T98G/F99L/C122S/G151H/Q175L/Q192D (enzyme)
chain: VVGGTDADEGEWPWQVSLHALGHGHACGASLISPNWLVSAAHCYIDVRGRRWSDPTQWTAFLGLHDQSQRSAPGVQERRLKRIISHPFFNIYNGLDYDIALLELEKPAEYSSMVRPISLPDASHVFPAGKAIWVTGWGHTQYGGTHALILQKGEIRVINQTTCENLLPQLITPRMMCVGFLSGGVDSCDGDSGGPLSSVEADGRIFQAGVVSWGDGCAQRNKPGVYTRLPLFRDWIKENTGV
B15: MTSP-1 Q38H/I41S/D60bF/F60eT/ins97aV/F97D/T98P/F99L/C122S/H143Q/G151N/Q175L/Q192G (enzyme)
chain: VVGGTDADEGEWPWQVSLHALGHGHSCGASLISPNWLVSAAHCYIDFRGTRYSDPTQWTAFLGLHDQSQRSAPGVQERRLKRIISHPFFNDDVPLDYDIALLELEKPAEYSSMVRPISLPDASHVFPAGKAIWVTGWGQTQYGGTNALILQKGEIRVINQTTCENLLPQLITPRMMCVGFLSGGVDSCGGDSGGPLSSVEADGRIFQAGVVSWGDGCAQRNKPGVYTRLPLFRDWIKENTGV

What follows are binders tested against plasma purified human complement protein C3 (human) (UniProt P01024) (assay: cell-based or functional assay).
Sequence of plasma purified human complement protein C3 (human) (P01024 23-667, chain 1 of 2): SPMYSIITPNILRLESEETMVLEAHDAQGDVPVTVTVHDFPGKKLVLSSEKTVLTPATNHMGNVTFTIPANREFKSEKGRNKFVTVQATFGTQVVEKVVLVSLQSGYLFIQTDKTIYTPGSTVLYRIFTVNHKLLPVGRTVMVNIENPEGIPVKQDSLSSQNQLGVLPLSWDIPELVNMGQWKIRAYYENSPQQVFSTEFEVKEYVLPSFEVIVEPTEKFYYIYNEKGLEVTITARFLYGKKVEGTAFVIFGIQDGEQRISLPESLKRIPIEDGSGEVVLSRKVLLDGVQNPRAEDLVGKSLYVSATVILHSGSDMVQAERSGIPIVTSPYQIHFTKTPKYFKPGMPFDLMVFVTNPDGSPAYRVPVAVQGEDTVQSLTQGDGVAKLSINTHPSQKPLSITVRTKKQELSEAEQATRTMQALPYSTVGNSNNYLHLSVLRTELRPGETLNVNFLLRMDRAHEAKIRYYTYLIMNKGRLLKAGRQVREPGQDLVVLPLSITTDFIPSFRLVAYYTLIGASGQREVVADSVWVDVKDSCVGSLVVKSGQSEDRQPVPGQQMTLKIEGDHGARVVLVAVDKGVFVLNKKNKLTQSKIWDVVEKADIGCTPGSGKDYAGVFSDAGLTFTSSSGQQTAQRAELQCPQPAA
Sequence of plasma purified human complement protein C3 (human) (P01024 672-1663, chain 2 of 2): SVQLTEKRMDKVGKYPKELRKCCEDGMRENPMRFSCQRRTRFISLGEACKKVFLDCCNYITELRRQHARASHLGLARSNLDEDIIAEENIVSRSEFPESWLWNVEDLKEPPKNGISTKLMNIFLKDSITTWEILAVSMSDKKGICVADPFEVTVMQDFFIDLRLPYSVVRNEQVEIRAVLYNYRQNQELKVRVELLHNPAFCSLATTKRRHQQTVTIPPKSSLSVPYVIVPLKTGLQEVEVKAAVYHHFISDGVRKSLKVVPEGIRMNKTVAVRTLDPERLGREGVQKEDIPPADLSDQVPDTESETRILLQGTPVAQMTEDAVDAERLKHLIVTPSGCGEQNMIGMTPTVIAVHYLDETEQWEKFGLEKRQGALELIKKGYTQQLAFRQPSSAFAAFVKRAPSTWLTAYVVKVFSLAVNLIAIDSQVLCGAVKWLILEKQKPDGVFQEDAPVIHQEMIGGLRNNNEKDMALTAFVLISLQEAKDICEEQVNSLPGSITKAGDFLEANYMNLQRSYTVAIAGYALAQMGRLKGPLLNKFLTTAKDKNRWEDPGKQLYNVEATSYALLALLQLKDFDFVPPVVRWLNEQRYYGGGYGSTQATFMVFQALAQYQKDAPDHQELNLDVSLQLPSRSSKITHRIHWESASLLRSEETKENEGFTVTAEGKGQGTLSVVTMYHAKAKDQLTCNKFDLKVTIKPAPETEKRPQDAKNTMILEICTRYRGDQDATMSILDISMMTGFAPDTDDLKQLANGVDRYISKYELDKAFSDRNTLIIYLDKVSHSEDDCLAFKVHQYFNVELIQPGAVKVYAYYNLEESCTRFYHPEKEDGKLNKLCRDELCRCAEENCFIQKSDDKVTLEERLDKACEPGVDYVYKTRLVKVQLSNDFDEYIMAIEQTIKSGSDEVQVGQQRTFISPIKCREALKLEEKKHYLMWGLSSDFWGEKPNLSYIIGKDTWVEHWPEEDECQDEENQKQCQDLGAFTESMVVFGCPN
B1 gave an EC50 hC3 cleavage of 2.52 nM. With B2 the EC50 of hC3 cleavage was 4.62 nM. B3 showed an EC50 of hC3 cleavage of 12.9 nM. Binder B4 has an EC50 of hC3 cleavage of 4.22 nM. B5 was tested, and the EC50 hC3 cleavage was 26.3 nM. B6 showed an EC50 hC3 cleavage of 6.69 nM. B7 gave an EC50 hC3 cleavage of 1.59 nM. B8 was tested, and the EC50 of hC3 cleavage was 21 nM. Work on B9 yielded an EC50 hC3 cleavage of 6.86 nM. For B10, the EC50 hC3 cleavage was 8.5 nM. In the case of B11, the EC50 hC3 cleavage is reported as 4.6 nM. Binder B12 has an EC50 of hC3 cleavage of 4.58 nM. Binder B13 has an EC50 hC3 cleavage of 1.17 nM. B14 gave an EC50 hC3 cleavage of 1.57 nM. B15 gave an EC50 of hC3 cleavage of 3.07 nM.
